Assay results taken from US20250296973A1, “TREATMENT METHOD USING MAZDUTIDE” (Innovent Biologics (Suzhou) Co., Ltd., priority 2022, published 2025).
Starred links: 1 amine or outer side, 2 acyl side, 3 side chain; linkers in the order of their positions; H or OH if unused. Non-standard residues stand in square brackets, D forms with d. Groups on a side chain read outwards from the residue. No end group written: not given here. *: point of attachment. C20 diacid = O=C(O)CCCCCCCCCCCCCCCCCCC(=O)*; γGlu = O=C(O)[C@H](CCC(=O)[*:2])N[*:1]; AEEA = NCCOCCOCC(=O)O; Aib = CC(C)(N)C(=O)O

Columns and labels:
[1] = Clinical trial of mazdutide dosing regimen (Example 1, 5 cohorts, overweight or obese subjects); type: in vivo, human; details: for least squares mean of percent change from baseline in body weight: sc once weekly, after 12 weeks
From the text: The contents in the vial were reconstituted in sterile water for injection to give a clear solution of mazdutide.
• 1. Aged 18-75 years (inclusive), male or female. • 2. For obesity, BMI≥28.0 kg/m^2; for overweight, 24≤BMI<28.0 kg/m^2 with at least one of the following: i, increased appetite, intolerable hunger before meals, and increased food consumption; ii, comorbidity with one or more of pre-diabetes (impaired fasting glucose and/or impaired glucose tolerance), hypertension, dyslipidemia, and fatty liver (within 6 months before the screening); iii, comorbidity with weight-bearing joint pain; iv, obesity-related dyspnea or obstructive sleep apnea syndrome. • 3. Weight change <5% after at least 12 weeks of diet/exercise weight control alone at the time of screening.
• 1. Use of any of the following drugs or treatments before the screening: • 1) previous use of either GLP-1 receptor (GLP-1R) agonists or GLP-1R/GCGR agonists; • 2) use of drugs that may have an effect on body weight within 3 months before the screening, including: systemic steroid hormone therapy (intravenous, oral, or intraarticular administration), metformin, SGLT2 inhibitors, thiazolidinediones (TZD), tricyclic antidepressants, psychotropic agents, or sedatives (e.g., imipramine, amitriptyline, mirtazapine, paroxetine, phenelzine, chlorpromazine, thioridazine, clozapine, olanzapine, valproic acid, valproic acid derivatives, and lithium salts), and the like; • 3) use of Chinese herbal medicines or health care products that may have an effect on body weight within 3 months before the screening; • 4) previous or current use of weight-loss drugs within 3 months before the screening, such as: sibutramine hydrochloride, orlistat, phentermine, phenylpropanolamine, mazindol, phentermine, amfepramone, lorcaserin, compounded phentermine/topiramate, compounded […], etc.; • 5) participation in other clinical trials (reception of the test drug treatment) within 3 months before the screening. • 2. […] Alcohol abuse is defined as: over 21 units for men or over 14 units for women weekly on average, or unwillingness to cease drinking within 24 hours before dosing and throughout the study period (one unit=360 mL of beer, or 150 mL of wine, or 45 mL of distilled spirits); • 21) drug abuse and positivity in a urine test for drugs at the time of screening. • 3. Any one of the laboratory tests meets the following criteria (those of proper reasons at the time of screening can be re-examined within one week, and the reason for retesting should be documented by the investigator): • 1) serum calcitonin ≥15 ng/L at the time of screening; • 2) at the time of screening, alanine aminotransferase ≥2.0×ULN and/or aspartate aminotransferase ≥2.0×ULN and/or total bilirubin ≥1.0×ULN and/or alkaline phosphatase ≥2.0×ULN; • 3) glomerular filtration rate eGFR<60 mL/min/1.73 m^2 at the time of screening, as estimated using the CKD-EPI equation; • 4) abnormal thyroid function (FT3, FT4, or TSH) at the time of screening; • 5) fasting triglyceride >5.64 mmol/L (500 mg/dL) at the time of screening: if the patient is receiving a lipid-regulating treatment, the dose of the treatment must be stable for 30 days before the screening; • 6) blood amylase or lipase >2.0×ULN at the time of screening; • 7) an international normalized ratio (INR) of prothrombin time greater than the upper limit of the normal range at the time of screening. • 4. Heart rate <50 beats/min or >90 beats/min as measured by 12-lead electrocardiogram (ECG) at the time of screening. • 5. Clinically significant abnormality in 12-lead ECG at the time of screening: atrioventricular block degree II or degree III, long QT syndrome or QTcF>450 ms (see Attachment 3 for the formula), PR interval <120 ms or PR interval >220 ms, QRS>120 ms, left or right bundle branch block, pre-excitation syndrome or severe arrhythmia requiring treatment in the absence of cardiac pacemaker. • 6. […]

[2] = 3.0-6.0-9.0 mg QW sc, after 24 consecutive weeks

mazdutide (H[Aib]QGTFTSDYSKYLDEKKAK([AEEA-AEEA-γGlu-C20 diacid])EFVEWLLEGGGPSSG-NH2; N-terminus assumed; SMILES CC(C)C[C@H](NC(=O)[C@H](CC(C)C)NC(=O)[C@H](Cc1c[nH]c2ccccc12)NC(=O)[C@H](CCC(=O)O)NC(=O)[C@@H](NC(=O)[C@H](Cc1ccccc1)NC(=O)[C@H](CCC(=O)O)NC(=O)[C@H](CCCCNC(=O)COCCOCCNC(=O)COCCOCCNC(=O)CC[C@H](NC(=O)CCCCCCCCCCCCCCCCCCC(=O)O)C(=O)O)NC(=O)[C@H](C)NC(=O)[C@H](CCCCN)NC(=O)[C@H](CCCCN)NC(=O)[C@H](CCC(=O)O)NC(=O)[C@H](CC(=O)O)NC(=O)[C@H](CC(C)C)NC(=O)[C@H](Cc1ccc(O)cc1)NC(=O)[C@H](CCCCN)NC(=O)[C@H](CO)NC(=O)[C@H](Cc1ccc(O)cc1)NC(=O)[C@H](CC(=O)O)NC(=O)[C@H](CO)NC(=O)[C@@H](NC(=O)[C@H](Cc1ccccc1)NC(=O)[C@@H](NC(=O)CNC(=O)[C@H](CCC(N)=O)NC(=O)C(C)(C)NC(=O)[C@@H](N)Cc1c[nH]cn1)[C@@H](C)O)[C@@H](C)O)C(C)C)C(=O)N[C@@H](CCC(=O)O)C(=O)NCC(=O)NCC(=O)NCC(=O)N1CCC[C@H]1C(=O)N[C@@H](CO)C(=O)N[C@@H](CO)C(=O)NCC(N)=O)
TEAEs resulting in permanent drug withdrawal ([1]; all 5 cohorts): no TEAEs resulting in permanent drug withdrawal occurred
severe TEAEs ([1]; all 5 cohorts): no severe TEAEs were reported
severe hypoglycemic events ([1]; all 5 cohorts): no severe hypoglycemic events occurred
severity of treatment emergent adverse events (TEAEs) ([1]; all 5 cohorts): Most treatment emergent adverse events (TEAEs) were mild
treatment emergent serious adverse events (TESAEs) ([1]; all 5 cohorts): no treatment emergent serious adverse events (TESAEs) occurred
least squares mean of percent change from baseline in body weight ([1]; cohort 2: 1.5 mg 4 wk + 3.0 mg 4 wk + 4.5 mg 4 wk): −6.40%
least squares mean of percent change from baseline in body weight ([1]; cohort 3: 2.0 mg 4 wk + 4.0 mg 4 wk + 6.0 mg 4 wk): −6.05%
least squares mean of percent change from baseline in body weight ([1]; cohort 5: 3.0 mg 4 wk + 6.0 mg 4 wk + 9.0 mg 4 wk): −11.7%
weight loss effect at week 12 in indirect comparison with similar drugs ([1]; cohort 5 regimen vs 2.4 mg Semaglutide and 10 mg or 15 mg Tirzepatide regimens, FIG. 6): particularly pronounced weight loss effect
improvement of blood pressure, blood lipid and serum uric acid levels ([1]; different doses in 5 cohorts, FIGS. 3-5 for cohorts 4 and 5): good beneficial effects
subjects with body weight reduced by at least 5% from baseline [2]: 81.7%
subjects with body weight reduced by at least 10% from baseline [2]: 65.0%
subjects with body weight reduced by at least 15% from baseline [2]: 31.7%
subjects with body weight reduced by at least 20% from baseline [2]: 21.7%
dropout rate of the treatment group (human, in vivo): lower than that of the placebo group overall
early termination of treatment due to adverse events (human, in vivo): no subject in the treatment group has terminated treatment in advance due to adverse events
most common treatment emergent adverse events (human, in vivo): gastrointestinal-related adverse events
serious adverse events (human, in vivo): no serious adverse event has occurred
